Tested on: MS2 coat protein
Test: apparent KD of MS2 coat protein; designed switch direction (-1 OFF switch, 1 ON switch): 1; higher = weaker reporter binding
Conditions: Eterna round: R98; input ligand: FMN 200 uM
Protocol: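 RNA-MaP: designed FMN/MS2 RNA switches (84 nt design region) are transcribed on-chip within common flanks and titrated with SNAP-549-labelled MS2 coat protein (about 1-3000 nM) in 100 mM Tris pH 7.5, 80 mM KCl, 4 mM MgCl2, without or with 200 uM FMN. Median apparent KD per design; activation ratio = KD,OFF / KD,ON.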

Row | Sequence | apparent KD of MS2 coat protein
1 | AUAGCAUACCGAGGAUAUUCAUAUAAUAAAUAAACAUGAGGAUCACCCAUGUGGCGAAAGCCUAGGGAGAAGGCGGAAUGCUAG [salish99_SSNG2_r2_101] | 29.9 nM
2 | GCCAUCGCAUGAGGAUAUGGCACCGUUUCGGUGCCAGAAGGCAUGUCUCUAGACAUGAGGAUCACCCAUGUAGUUAAGAUGGCA [Pyrimidine booster 2] | 50.4 nM
3 | UCACUCACGUCAGGAUAUGGAUCGGAAAACGAUCCAGAAGGGACCUGCAAACCUGAGGAUCACCCUGGUUCCAAUAACGAGUGA [SameSame 10 - Jieux - Same State NG 1] | 133 nM
4 | GCAGAAGGUGCGGAGGAUCACCCUGUAAGGAUAUGCAUUAGCAAGGAUAUACAGAGGAUCACCCUGUAGAAGGUGCACUACAAA [pwkr2 ssNG3 DX.5] | 525 nM
5 | GUAGCAUACCGAGGAUAUUCAUAUAAUAAAUAAACAUGAGGAUCACCCAUGUGGCGAAAGCCUAGGGAGAAGGCGGAAUGCUAA [salish99_SSNG2_r2_113] | 23.6 nM
6 | GCACUCAAGUUAGGAUAUGGAUCGGAAACCGAUCCAGAAGGAACACAAUAACAUGAGCAUCAGCCGUGUUCCAGAAACGAGUGC [SameSame 15 - Jieux - Same State NG 1] | 126 nM
7 | CCGGAAACGGGUAGCUGACAUGAGGAUCACCCAUGUGAAUCUGAGGAUAUGGAUGGUAAUUCCAUCCAGAAGGCAGUCAGCUAC [Mat - Same State NG 3 - JL Mod - D82] | 59.1 nM
8 | CAUAGGUGUACAUGAGGAUCACCCAUGUCCCUGGUCAUUGGACAGGAUAUAUGGGCGGUCGCUUCAUAGAAGGGUUAAAUGGGA [Orenatis] | 224 nM
9 | CCGUGACACGAAGGAUAUGUGGGUGGUAGUCUGUGCUCCGCCUACAUGAGGAUCACCCAUGUAUCACAGAAGGUCGGACGUCAA [Zaaerzaza] | 71.2 nM
10 | GUAGCAUACCGAGGAUAUUCAUAUAAUAAAUAAACAUGAGGAUCACCCAUGUGGCGAAAGCCUAGGGAGAAGGCGGAAUGCUAG [salish99_SSNG2_r2_003] | 22.1 nM
11 | CACUCAAGGUGAGGAUAUGCACAGGAUCACCGUGUAGAAGGCAUCAGGUAGAAGGUGCAGAGGAUCACCCUGUAAGGAUAUAUC [pwkr2 ssNG1 DX.11] | 334 nM
12 | GUCGAAUUCUUAGGAUAUCGAGUGGAUAACACUCGAGAAGGAAGAUAUACCUGAGGAUCACCCAGGUUAAACUGAACGACAAUA [Same State NG1 - A3C, U17G Submission 7D] | 17.5 nM
13 | GGCGAUCAGGCUAACAUGAGGAUCACCCAUGUGGACUCAUGGUAGGAUAUGCUGUACAAAGUACAGCAGAAGGGCCGGAGAGCC [Mat - Same State NG 3 - JL Mod - D2] | 144 nM
14 | CCGGUGUAUGCAGGAUAUGAGAGGAGGUGACCAUCAGAAGGGCAAGCCCACAUGAGGAUCACCCAUGUACUAAGAGACAAGGCC [Tienlaonso] | 50.7 nM
15 | GCACUCAAGUUAGGAUAUGGAUCGGAAAACGAUCCAGAAGGAACAUGGGAACAUGAGGAUCACCCAUGUUCCAGAAACGAGUGC [SameSame 1 - Jieux - Same State NG 1] | 188 nM
16 | CCAGAGAUAUGAGGAUAUCGAGUGGAUAACACUCGAGAAGGCAUGUGAAAACAUGAGGAUCACCCAUGUGAUCAAUACUCUGGA [Same State NG1 - WT Aptamer 2D] | 27.4 nM
17 | AUUAAUGGGUGAGGAUAUGCACAGGAUCACCGUGUAGAAGGCAUCAGGUAGAAGGUGCAGAGGAUCACCCUGUAAGGAUAUAUC [pwkr2 ssNG1 DX.13] | 858 nM

Same assay, conditions: Eterna round: R98; input ligand: none

Row | Sequence | apparent KD of MS2 coat protein
18 | AUAGCAUACCGAGGAUAUUCAUAUAAUAAAUAAACAUGAGGAUCACCCAUGUGGCGAAAGCCUAGGGAGAAGGCGGAAUGCUAG [salish99_SSNG2_r2_101] | 237 nM
19 | GCCAUCGCAUGAGGAUAUGGCACCGUUUCGGUGCCAGAAGGCAUGUCUCUAGACAUGAGGAUCACCCAUGUAGUUAAGAUGGCA [Pyrimidine booster 2] | 589 nM
20 | UCACUCACGUCAGGAUAUGGAUCGGAAAACGAUCCAGAAGGGACCUGCAAACCUGAGGAUCACCCUGGUUCCAAUAACGAGUGA [SameSame 10 - Jieux - Same State NG 1] | 222 nM
21 | GCAGAAGGUGCGGAGGAUCACCCUGUAAGGAUAUGCAUUAGCAAGGAUAUACAGAGGAUCACCCUGUAGAAGGUGCACUACAAA [pwkr2 ssNG3 DX.5] | 1890 nM
22 | GUAGCAUACCGAGGAUAUUCAUAUAAUAAAUAAACAUGAGGAUCACCCAUGUGGCGAAAGCCUAGGGAGAAGGCGGAAUGCUAA [salish99_SSNG2_r2_113] | 201 nM
23 | CCGGAAACGGGUAGCUGACAUGAGGAUCACCCAUGUGAAUCUGAGGAUAUGGAUGGUAAUUCCAUCCAGAAGGCAGUCAGCUAC [Mat - Same State NG 3 - JL Mod - D82] | 551 nM
24 | CAUAGGUGUACAUGAGGAUCACCCAUGUCCCUGGUCAUUGGACAGGAUAUAUGGGCGGUCGCUUCAUAGAAGGGUUAAAUGGGA [Orenatis] | 66.6 nM
25 | CCGUGACACGAAGGAUAUGUGGGUGGUAGUCUGUGCUCCGCCUACAUGAGGAUCACCCAUGUAUCACAGAAGGUCGGACGUCAA [Zaaerzaza] | 51.3 nM
26 | GUAGCAUACCGAGGAUAUUCAUAUAAUAAAUAAACAUGAGGAUCACCCAUGUGGCGAAAGCCUAGGGAGAAGGCGGAAUGCUAG [salish99_SSNG2_r2_003] | 248 nM
27 | CACUCAAGGUGAGGAUAUGCACAGGAUCACCGUGUAGAAGGCAUCAGGUAGAAGGUGCAGAGGAUCACCCUGUAAGGAUAUAUC [pwkr2 ssNG1 DX.11] | 867 nM
28 | GUCGAAUUCUUAGGAUAUCGAGUGGAUAACACUCGAGAAGGAAGAUAUACCUGAGGAUCACCCAGGUUAAACUGAACGACAAUA [Same State NG1 - A3C, U17G Submission 7D] | 18.5 nM
29 | GGCGAUCAGGCUAACAUGAGGAUCACCCAUGUGGACUCAUGGUAGGAUAUGCUGUACAAAGUACAGCAGAAGGGCCGGAGAGCC [Mat - Same State NG 3 - JL Mod - D2] | 152 nM
30 | CCGGUGUAUGCAGGAUAUGAGAGGAGGUGACCAUCAGAAGGGCAAGCCCACAUGAGGAUCACCCAUGUACUAAGAGACAAGGCC [Tienlaonso] | 25.5 nM
31 | GCACUCAAGUUAGGAUAUGGAUCGGAAAACGAUCCAGAAGGAACAUGGGAACAUGAGGAUCACCCAUGUUCCAGAAACGAGUGC [SameSame 1 - Jieux - Same State NG 1] | 733 nM
32 | CCAGAGAUAUGAGGAUAUCGAGUGGAUAACACUCGAGAAGGCAUGUGAAAACAUGAGGAUCACCCAUGUGAUCAAUACUCUGGA [Same State NG1 - WT Aptamer 2D] | 170 nM
33 | AUUAAUGGGUGAGGAUAUGCACAGGAUCACCGUGUAGAAGGCAUCAGGUAGAAGGUGCAGAGGAUCACCCUGUAAGGAUAUAUC [pwkr2 ssNG1 DX.13] | 998 nM

From the supplement of paper PMC9170038
